Source: patent US20230295310A1 (ABCELLERA BIOLOGICS, published 2023)

Experiments:
cynomolgus monkey CD3 = target: T1, cynomolgus monkey CD3 (cynomolgus monkey, UniProt Q95LI5 22-198; Q95LI8 22-171; Q95LI7 23-181); test: flow cytometry, cyno primary T cells
T1 construct: whole, on cells; CD3 on purified cynomolgus monkey CD3 pan T cells; also called cyno CD3; CD3 on cyno primary T cells
In short: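 Cells expressing CD3 were exposed to each antibody diluted to 25 nM for 30 minutes at 4° C, then analysed by flow cytometry. The median fluorescence signal was expressed relative to an isotype control, and a value of at least 10 indicated binding.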

EGFR on HeLa cells = EGFR on HeLa cells (UniProt P00533 25-1210, limits assumed); test: cell-based or functional assay

T1 sequence (Q95LI5 22-198, chain 1 of 3): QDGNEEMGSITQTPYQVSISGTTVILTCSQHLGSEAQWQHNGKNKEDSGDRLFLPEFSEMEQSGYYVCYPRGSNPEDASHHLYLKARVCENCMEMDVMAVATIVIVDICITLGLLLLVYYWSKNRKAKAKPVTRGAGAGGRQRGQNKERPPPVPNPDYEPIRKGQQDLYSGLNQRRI
T1 sequence (Q95LI8 22-171, chain 2 of 3): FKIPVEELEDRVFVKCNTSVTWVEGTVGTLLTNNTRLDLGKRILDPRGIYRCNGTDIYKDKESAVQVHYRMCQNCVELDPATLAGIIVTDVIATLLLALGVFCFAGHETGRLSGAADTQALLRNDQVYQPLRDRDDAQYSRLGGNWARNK
T1 sequence (Q95LI7 23-181, chain 3 of 3): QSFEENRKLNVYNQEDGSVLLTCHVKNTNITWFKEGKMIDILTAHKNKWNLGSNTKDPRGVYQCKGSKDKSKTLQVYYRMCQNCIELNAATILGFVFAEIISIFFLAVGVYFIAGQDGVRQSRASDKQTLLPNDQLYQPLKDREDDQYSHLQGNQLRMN

Binder | binding result (cynomolgus monkey CD3) | Max killing % (EGFR on HeLa cells) [%] | X… HeLa EC50 (EGFR on HeLa cells) [nM]
mAb 320 (antibody, V domains shown, VH and VL only) VH: QVQLVESGGGVVQPGRSLRLSCAASGFTFRSYGMHWVRQAPGKGLEWVAIIWYDGSKKYYADSVKGRFTISRDNSKNILYLQMNSLRAEDTAVYYCARQEFNWNDGGYYYMDVWGKGTTVTVSS VL: DIQLTQSPSFLSASVGDRVTITCRASQGISSYLDWCQQKPGKAPKLLIYAASTLQSGVPSRFSGSGSGTEFTLTISSLQPEDFATYYCQQLDNYPPTFGGGTKVEIK | no binding (tested: FOI ≥10 = positive; 25 nM) | – | –
mAb 314 (antibody, V domains shown, VH and VL only) VH: EVQLLESGGGLVQPGGSLRLSCAASGFTFSSYAMSWVRQAPGKGLEWVSVISGSGGNKNYADSVKGRFTISRDNSKNTLYLQMNSLRAEDTAVYYCAKKFSYYYYYMDVWGKGTTVTVSS VL: SYELTQPLSVSVALGQTARITCGGNNIGSKDVHWYQQKPGQAPVLVIYRDSNRPSGIPERFSGSNSGNTATLTISRAQAGDEADYYCQVWDSRTAVFGGGTQLTAL | no binding (tested: FOI ≥10 = positive; 25 nM) | – | –
mAb 308 (antibody, V domains shown, VH and VL only) VH: EVQLLESGGGSVQPGGSLRLSCAASGFTFSSYAMNWVRQAPGKGLEWISIISGGRRTGITYYAASVKGRFTISRDNSKNTLYLQMNSLRAEDTAVYYCAKMYNYYYYYIDVWGKGTTVTVSS VL: SYELTQPLSVSVALGQTARITCGGNNIGSKDVHWYQQKPGQAPVLVIYRDSNRPSGIPERFSGSNSGNTATLTISRAQAGDEADYYCQVWDSNTAVFGGGTQLTAL | no binding (tested: FOI ≥10 = positive; 25 nM) | – | –
mAb 307 (antibody, V domains shown, VH and VL only) VH: EVHLLESGGGMVQPGGSRRLSCAASGFSFRNSAMSWVRQAPGKGLEWVSVIDGRGTTSNYADSVKGRFTISRDNSKNTLYLQMNSLRAEDTAVYYCAKKYSYYYYYMDVWGKGTTVTVSS VL: SYELTQPLSVSVALGQTARITCGGNNIGSKDVHWYQQKPGQAPVLVIYRDSNRPSGIPERFSGSNSGNTATLTISRAQAGDEADYYCQVWDSRTAVFGGGTHLTAL | no binding (tested: FOI ≥10 = positive; 25 nM) | – | –
mAb 293 (antibody, V domains shown, VH and VL only) VH: EVQLLESGGDLVQPGGSLRLSCAASGFTFSRNAVSWVRQAPGRGLEWVSTISGRGDKTNYVDSVKGRFTISRDNSKNTLYLQMNSLRAEDTAVYYCTKMFSYYYYYMDVWGKGTTVTVSS VL: SYELTQPLSVSVALGQTARITCGGNNIGSKDVHWYQQKPGQAPVLVIYRDSNRPSGIPERFSGSNSGNTATLTISRAQAGDEADYYCQVWDSSTAVFGGGTQLTAL | no binding (tested: FOI ≥10 = positive; 25 nM) | – | –
mAb 302 (antibody, V domains shown, VH and VL only) VH: EGQLLESGGGLVQPGGSLRLSCAASGFTFSRYAMSWIRQAPGKGLEWVSVINGSGGDKNYADSVRGRFTISRDNSKNSLYLLMNGLRVEDTAIYFCAKKFSYYYYYMDVWGKGTTVTVSS VL: SYELTQPLSVSVALGQTARITCGGNNIGGKDVHWYQQKPGQAPVLVIYRDSNRPSGIPERFSGSNSGNTATLTISRAQAGDEADYYCQVWDSRTAVFGGGTQLTAL | no binding (tested: FOI ≥10 = positive; 25 nM) | – | –
mAb 313 (antibody, V domains shown, VH and VL only) VH: EVQLLESGGGLVQPGGSLRLSCAASGFTFSSYAMSWVRQAPGKGLEWVSAITGSGRTTYFVDSVKGRFTISRDNSKNTLYLQMNSLRAEDTAVYYCAKKFSYYYYYMDVWGKGTTVTVSS VL: SYELTQPLSVSVALGQTARITCGGNNIGSKDVHWYQQKPGQAPVLVIYRDSNRPSGIPERFSGSNSGNTATLTISRAQAGDEADYYCQVWDRKIAVFGGGTQLTAL | no binding (tested: FOI ≥10 = positive; 25 nM) | – | –
mAb 291 (antibody, V domains shown, VH and VL only) VH: EVQLLESGGGLVQPGGSRRLSCAASGFTFSSYALSWVRQAPGKGLEWVSVINTRGDSTSYADSVKGRFTISRDNSKNTLYLQMNSLRAEDTAVYYCAKKYSYYYYYMDVWGKGTTVTVSS VL: SYELTQPLSVSVALGQTARITCGGNNIGSKDVHWYQQKPGQAPVLVIYRDSNRPSGIPERFSGSNSGNTATLTISRAQAGDEADYYCQVWDSRTAVFGGGTQLTAL | no binding (tested: FOI ≥10 = positive; 25 nM) | – | –
mAb 309 (antibody, V domains shown, VH and VL only) VH: ELQLLESGGGLVQPGGSLRLSCAASGFTFSSYAMSWVRQAPGKGLEWVSVISGNGGNKNHADSVKGRFTISRDNSKNTLYLQMNSLRAEDTAVYYCAKKYSYYYYYMDVWGKGTTVTVSS VL: SYELTQPLSVSVALGQTARITCGGNNIGSKDVHWYQQKPGQAPVLVIYRDSNRPSGIPERFSGSNSGNTATLTISRAQAGDEADYYCQVWDSRTAVFGGGTQLTAL | no binding (tested: FOI ≥10 = positive; 25 nM) | – | –
mAb 315 (antibody, V domains shown, VH and VL only) VH: EVQLLESGGGLVQPGGSRRLSCAASGFTFSSYAMSWVRQAPGKGLEWVSVINTRGDSTSYADSVKGRFTISRDNSKNTLYLQMNSLRAEDTAVYYCAKKYSYYYYYMDVWGKGTTVTVSS VL: SYELTQPLSVSVALGQTARITCGGNNIGSKDVHWYQQKPGQAPVLVIYRDSNRPSGIPERFSGSNSGNTATLTISRAQAGDEADYYCQVWDSRTAVFGGGTQLTAL | no binding (tested: FOI ≥10 = positive; 25 nM) | – | –
mAb 317 (antibody, V domains shown, VH and VL only) VH: EVQLLESGGGLVQPGGSLRLSCAASGFTFSSFAMSWVRQAPGKGLEWVSVISGNGDKKNYADSVKGRFTISRDNSKNTLYLQMNSLRAEDTAVYYCAKKYSYYYYYMDVWGKGTTVTVSS VL: SYELTQPLSVSVALGQTARITCGGNNIGSKDVHWYQQKPGQAPVLVIYRDSNRPSGIPERFSGSNSGNTATLTISRAQAGDEADYYCQVWDSRTAVFGGGTQLTAL | no binding (tested: FOI ≥10 = positive; 25 nM) | – | –
mAb 298 (antibody, V domains shown, VH and VL only) VH: EGQLLESGGGLVQPGGSLRLSCAASGFTFSRYAMSWIRQAPGKGLEWVSVINGSGGDKNYADSVKGRFTISRDNSKNSLYLLMNGLRVEDTAIYFCAKKFSYYYYYMDVWGKGTTVTVSS VL: SYELTQPLSVSVALGQTARITCGGNNIGGKDVHWYQQKPGQAPVLVIYRDSNRPSGIPERFSGSNSGNTATLTISRAQAGDEADYYCQVWDSRTAVFGGGTQLTAL | no binding (tested: FOI ≥10 = positive; 25 nM) | – | –
mAb 295 (antibody, V domains shown, VH and VL only) VH: EVQLLESGGGLVQPGGSLRLSCAASGITFSSYAMSWVRQAPGKGLEWVSTISGNGGTLYYTDSVKGRFTISRDNSKNTLYLQMNSLRAEDTAVYYCAKKYSYYYYYMDVWGKGTTVTVSS VL: SYELTQPLSVSVALGQTARITCGGNNIGSKNVHWYQQKPGQAPVLVIYRDSNRPSGIPERFSGSNSGNTATLTISRAQAGDEADYYCQVWDSSTAVFGGGTQLTAL | no binding (tested: FOI ≥10 = positive; 25 nM) | – | –
mAb 305 (antibody, V domains shown, VH and VL only) VH: EVQLLESGGGLVQPGGSLRLSCAASGFSFSSFALSWVRQAPGKGLEWVSVISGNGGNKNYADSVKGRFTISRDNSKNTLYLQMNSLRAEDTAVYYCAKKYSYYYYYMDVWGKGTTVTVSS VL: SYELTQPLSVSVALGQTARITCGGNNIGGKDVHWYQQKPGQAPVLVIYRDSNRPSGIPERFSGSNSGNTATLTISRAQAGDEADYYCQVWDSRAAVFGGGTQLTAL | no binding (tested: FOI ≥10 = positive; 25 nM) | – | –
mAb 299 (antibody, V domains shown, VH and VL only) VH: EVQLLESGGGLVQPGGSRRLSCAASGFTFRSYAMSWVRQAPGKGLEWVSVISIRGDSTSYADSVKGRFTISRDNSKNTLYLQMNSLRAEDTAVYYCAKKYSYYYYYMDVWGKGTTVTVSS VL: SYELTQPLSVSVALGQTARITCGGNNIGSKDVHWYQQKPGQAPVLVIYRDSNRPSGIPERFSGSNSGNTATLTISRAQAGDEADYYCQVWDSRTAVFGGGTQLTAL | no binding (tested: FOI ≥10 = positive; 25 nM) | – | –
GOMP001_bsAb_056 (bispecific antibody) heavy 1: EVNLVESGGGLVQPGRSLRLSCAASGFTFDDYTMHWVRKVPGKGLEWVSNISWNSGSLGYADEVKGRFTISRDNAKDSLYLQMNSLRVEDTALYYCAKDSSGYGHYNSYYMDVWGKGTTVTVSSASTKGPSVFPLAPSSKSTSGGTAALGCLVADYFPEPVTVSWNSGALTSGVHTFPAVLQSSGLYSLSSVVTVPSSSLGTQTYICNVNHKPSNTKVDEKVEPKSCDKTHTCPPCPAPEAAGGPSVFLFPPKPKDTLMISRTPEVTCVVVDVSHEDPEVKFNWYVDGVEVHNAKTKPREEQYNSTYRVVSVLTVLHQDWLNGKEYKCKVSNKALPAPIEKTISKAKGQPREPQVYTLPPSREEMTDNQVSLTCLVKGFYPSDIAVEWESNGQPENNYKTTPPVLMSDGSFFLASKLTVDKSRWQQGNVFSCSVMHEALHNHYTQKSLSLSPG light 1: RIQMTQSPSSLSASVGDRVTITCRASQSIRNYLNWYQDKPGKAPKVLIYSASSLQSGVPSRFSGSGSGTDFTLTISSLQPEDFASFYCQQTYSTPITFGQGTRLEIKRTVAAPSVFIFPPSDKQLKSGTARVVCLLNNFYPREAKVQWKVDNALQSGNSQESVTEQDSKDSTYSLSSTLTLSKADYEKHKVYACEVTHQGLSSPVTKSFNRGEC heavy 2: QVQLVQSGAEVKKPGASVKVSCKASGYTFTSHWMHWVRYAPGQGLEWIGEFNPSNGRTNYNEKFKSKATMTVDTSTNTAYMELSSLRSEDTAVYYCASRDYDYDGRYFDYWGRGTLVTVSSASTKGPSVFPLAPSSKSTSGGTAALGCLVKDYFPEPVTVSWNSGALTSGVHTFPAVLQSSGLYSLSSVVTVPSSSLGTQTYICNVNHKPSNTKVDKKVEPKSCDKTHTCPPCPAPEAAGGPSVFLFPPKPKDTLMISRTPEVTCVVVDVSHEDPEVKFNWYVDGVEVHNAKTKPREEQYNSTYRVVSVLTVLHQDWLNGKEYKCKVSNKALPAPIEKTISKAKGQPRRPRVYTLPPSREEMTKNQVSLVCLVKGFYPSDIAVEWESNGQPENNYKTTPPVLDSDGSFFLYSVLTVDKSRWQQGNVFSCSVMHEALHNHYTQKSLSLSPG light 2: DIQMTQSPSSLSASVGDRVTITCSASSSVTYMYWYQRKPGDAPKLLIYDTSNLASGVPSRFSGSGSGTDYTFTISSLQPEDIATYYCQQWSSHIFTFGQGTKVEIKRTVAAPSVFIFPPSDEQLKSGTASVVCLLNNFYPREAKVQWKVDNALQSGNSQESVTEQDSKDSTYSLSSTLTLSKADYEKHKVYACEVTHQGLSSPVTKSFNRGEC | – | 96.3 | 0.0135
